This is an account of results in the supplement of paper PMC10201428.

± gives the standard deviation of the averaged measurements.

Data set [1] has as its system VchCAST RNA-guided transposition machinery (E. coli BL21(DE3) host, lacZ target). As to the kind of experiment: relative integration efficiency (T-LR orientation) vs wild-type transposon end (log2 (normalized fold change)); transposon end mutated: right end (5 bp flank + 75 bp right end); higher = more efficient transposition. The essentials: (§1)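 Relative integration efficiency is a fold change of output over input barcode abundance, normalised to reference barcodes and log-transformed. Input plasmids and genomic integration junctions were PCR-amplified and Illumina-sequenced from E. coli BL21(DE3) co-transformed with a T7-driven effector plasmid and pUC57 donor pools of 1549 left-end or 1849 right-end transposon variants. Plating was done with 0.1 mM IPTG at 37°C for 18 h, with two biological output replicates and four reference barcodes.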

The test system is the same in data set [2]. Put plainly: relative integration efficiency (T-RL orientation) vs wild-type transposon end (log2 (normalized fold change)); transposon end mutated: right end (5 bp flank + 75 bp right end); higher = more efficient transposition. The procedure, abridged: as §1

Take “ACATTTGTTGATACAACCATAAAGTGATATTTACAACCATATATTGATATCTCTCACAACCATAAAGTGATATTTACTCTGATCATAGTCAGACCAACATTGCTACGACCCGTATTCGCACCGACAC”: the “relative integration efficiency (log2)” value in data set [1] is -0.115 ± 0.5; in data set [2], -0.357 ± 0.21.

Regarding “ACATTTGTTGATACAACCATAAAGTGATATTTACAACCATATATTGATATCTCTCACAACCATAAGTTGATATTTTCTCTGATCATAGTCAGACCAACATTGCTACGACCCGTATTCGCACCGACAC”, the “relative integration efficiency (log2)” value in data set [1] is 0.252 ± 0.15; in data set [2], -0.0164 ± 0.24.

Turning to “ACATTTGTTGATACAACCATAAAGTGATATTTACAACCATATATTGATATCTCTCACAACCATATATTGATATCTCCTCTGATCATAGTCAGACCAACATTGCTACGACCCGTATTCGCACCGACAC”, the figures for the “relative integration efficiency (log2)” value in data set [1] and in data set [2] were 0.32 ± 0.11 and -0.415 ± 0.28, respectively.

In the case of “ACATTTGTTGATACAACCATAAAGTGATATTTACAACCATATATTGATATCTCTCACACCCATAAATTGATAATTACTCTGATCATAGTCAGACCAACATTGCTACGACCCGTATTCGCACCGACAC”, the “relative integration efficiency (log2)” value is 0.444 ± 0.39 in data set [1] and 0.065 ± 0.054 in data set [2].

As to “ACATTTGTTGATACAACCATAAAGTGATATTTACAACCATATATTGATATCTCTCACACCCATAAATTGATATTGCCTCTGATCATAGTCAGACCAACATTGCTACGACCCGTATTCGCACCGACAC”, the “relative integration efficiency (log2)” value in data set [1] is 0.352 ± 0.16; in data set [2], -0.378 ± 0.18.

On to “ACATTTGTTGATACAACCATAAAGTGATATTTACAACCATATATTGATATCTCTCAGTGGGTATTTAACTATAACGCTCTGATCATAGTCAGACCAACATTGCTACGACCCGTATTCGCACCGACAC”, for which the figures for the “relative integration efficiency (log2)” value in data set [1] and in data set [2] were 2.6 ± 0.17 and -1.32 ± 0.41, respectively.

For the sequence “ACATTTGTTGATACAACCATAAAGTGATATTTACACCCATAAATTGATAATTATCACAACCATAAAATGATAATTACTCTGATCATAGTCAGACCAACATTGCTACGACCCGTATTCGCACCGACAC”, the “relative integration efficiency (log2)” value is -0.112 ± 0.54 in data set [1] and 0.256 ± 0.0071 in data set [2].

For the sequence “ACATTTGTTGATACAACCATAAAGTGATATTTACACCCATAAATTGATAATTATCACAACCATAAAGTGATATTTACTCTGATCATAGTCAGACCAACATTGCTACGACCCGTATTCGCACCGACAC”, the results for the “relative integration efficiency (log2)” value in data set [1] and in data set [2] were -0.0182 ± 0.15 and -0.155 ± 0.041, respectively.

On to “ACATTTGTTGATACAACCATAAAGTGATATTTACACCCATAAATTGATAATTATCACAACCATAAGTTGATATTTTCTCTGATCATAGTCAGACCAACATTGCTACGACCCGTATTCGCACCGACAC”, for which the entries for the “relative integration efficiency (log2)” value in data set [1] and in data set [2] were -0.245 ± 0.3 and -0.313 ± 0.23, respectively.

As for “ACATTTGTTGATACAACCATAAAGTGATATTTACACCCATAAATTGATAATTATCACAACCATATATTGATATCTCCTCTGATCATAGTCAGACCAACATTGCTACGACCCGTATTCGCACCGACAC”, the results for the “relative integration efficiency (log2)” value in data set [1] and in data set [2] were -0.0754 ± 0.42 and -0.382 ± 0.084, respectively.

Consider “ACATTTGTTGATACAACCATAAAGTGATATTTACACCCATAAATTGATAATTATCACACCCATAAATTGATAATTACTCTGATCATAGTCAGACCAACATTGCTACGACCCGTATTCGCACCGACAC”, for which the entries for the “relative integration efficiency (log2)” value in data set [1] and in data set [2] were -0.191 ± 0.54 and 0.112 ± 0.071, respectively.

On to “ACATTTGTTGATACAACCATAAAGTGATATTTACACCCATAAATTGATAATTATCACACCCATAAATTGATATTGCCTCTGATCATAGTCAGACCAACATTGCTACGACCCGTATTCGCACCGACAC”, for which the “relative integration efficiency (log2)” value in data set [1] is -0.336 ± 0.44; in data set [2], -0.207 ± 0.081.

“ACATTTGTTGATACAACCATAAAGTGATATTTACACCCATAAATTGATAATTATCAGTGGGTATTTAACTATAACGCTCTGATCATAGTCAGACCAACATTGCTACGACCCGTATTCGCACCGACAC”: the “relative integration efficiency (log2)” value is 2.57 ± 0.054 in data set [1] and -0.826 ± 0.22 in data set [2].

Take “ACATTTGTTGATACAACCATAAAGTGATATTTACACCCATAAATTGATATTGCTCACAACCATAAAATGATAATTACTCTGATCATAGTCAGACCAACATTGCTACGACCCGTATTCGCACCGACAC”: the “relative integration efficiency (log2)” value in data set [1] is 0.169 ± 0.17; in data set [2] it was -0.254 ± 0.19.
